Source: paper PMC7665024, “Anti-apoptotic BCL-2 regulation by changes in dynamics of its long unstructured loop” (Communications Biology, 2020)
“Also recorded” adds a separate entry of the source.

Assays:
BAX [1] = experiment: FRAP-GUV pore-forming activity of BAX, 10-kDa F-dextran; assay type: biochemical, mouse; set-up: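 unitless ratio D/D0 relative to diffusion coefficient after Triton X-100 disruption of GUVs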; conditions: 10 kDa F-dextran
Protocol: (§1) Briefly, GUVs were incubated with the proteins of interest over a period of time (Fig. 2c), followed by photobleaching within individual GUVs. A series of fluorescent images were collected over time after the photobleaching and then analyzed to yield the diffusion coefficients of Fluor molecules (including FITC-labeled 70-kDa, and Alexa-647-labeled 10-kDa probes) using the theoretical approach detailed in the “Methods” section. As Fluor molecules are homogeneously dispersed in the solution (outside and inside of GUVs) before the incubation with BAX and activators, it is reasonable to expect that the larger the induced pore area on the surface of a GUV, the greater the diffusion coefficient. Thus, the diffusion coefficient is directly related to the pore-forming activity of activated BAX. As the pore-forming activity is proportional to the concentration of BAX[18], we fixed the total amount of added BAX in all of the measurements below (see the “Methods” section).
(§2) Full-length BAX and variants were prepared as previously described[18],[22],[35]. Mouse BAX was cloned into pTYB1 vector (New England Biolabs, Inc.), resulting pTYB1-BAX construct. The pTYB1-BAX construct encoding a fusion protein of BAX with chitin-binding peptide was separated by a self-cleavable intein tag to obtain a full-length BAX. Wild-type BAX has two native cysteine residues at 62 and 126. Cysteine-free construct (C62S/C126S) was used to prepare single-cysteine BAX variants for conjugating fluorescence probes (e.g., BAX136C in Fig. 1d). Point mutations of recombinant BAX were generated using a QuikChange mutagenesis kit. Proteins were expressed in E. coli (ER2566) strain (New England Biolabs, Inc.) and purified without detergent. Bacterial cultures were grown at 37 °C in LB medium containing 0.1 g/L ampicillin to reach an OD600 of 1.0. BAX expression was induced by addition of 0.3 mM IPTG at 30 °C for 6−8 h. The cells were harvested by centrifugation and resuspended in ice-cold lysis buffer (20 mM Tris–HCl, pH 7.0, 500 mM NaCl and 1 mM PMSF). The resuspended pellet was sonicated on ice for 30 min, followed by centrifugation at 12,800 × g for 50 min. […] The resins were incubated in a pre-equilibrated buffer (20 mM sodium phosphate, pH 8.0, 100 mM NaCl, 60 mM dithiothreitol (DTT)) for 48 h. Proteins were eluted from column and further purified by a SEC using a HiLoad 16/60 Superdex 75 column (GE Healthcare) pre-equilibrated in PB buffer (20 mM sodium phosphate, pH 7.4, 100 mM NaCl). Purified proteins were confirmed by SDS–PAGE with Coomassie blue staining. Protein concentration was determined using absorption spectroscopy at 280 nm.
(§3) All lipids used were purchased from Avanti Polar Lipids. […] Texas Red 1,2-dihexadecanoyl-sn-glycero-3-phosphoethanolamine (TR-DPPE) (Invitrogen) of 0.05% was added to the lipid mixture for virtualization of GUV[18],[26],[27]. GUVs were prepared with the gel-assisted swelling on a polyvinyl alcohol (PVA) gel[39]. A 5% (w/w) solution of PVA (MW 145,000) was prepared by stirring PVA in ddH2O while heating at 90 °C. PVA solution was spread on a microscope coverslip (18 × 18 mm, Matsunami, Japan) and then dried at 50 °C. Lipid mixture (1 mg/mL) dissolved in chloroform were spread on the dry PVA film and placed under vacuum for 30 min to evaporate the solvent. Lipids were rehydrated for 1 h in PB buffer. The resulting GUVs were transferred to an Eppendorf tube using blunt tips.
(§4) FRAP measurements were performed as described previously. […] All reactions were at room temperature and the final volume was 200 μL.

BAX [2] = experiment: FRAP-GUV pore-forming activity of BAX, 70-kDa F-dextran; assay type: biochemical, mouse; set-up: FRAP pore-forming activity / FRAP pore-forming activity, average / p (FRAP-70k-p), Average: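 unitless ratio D/D0 relative to diffusion coefficient after Triton X-100 disruption of GUVs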
Protocol: as §1, §2, §3, §4

B1: EEE (protein)
chain: MAHAGRTGYDNREIVMKYIHYKLSQRGYEWDAGDVGAAPPGAAPAPGIFSSQPGHTPHPAASRDPVAREEPLQTPAAPGAAAGPALEPVPPVVHLTLRQAGDDFSRRYRRDFAEMSSQLHLTPFTARGRFATVVEELFRDGVNWGRIVAFFEFGGVMCVESVNREMSPLVDNIALWMTEYLNRHLHTWIQDNGGWDAFVELYGPSMRPLFDFSWLSL
modifications: Pacific Blue (maleimide) on the native cysteine 158; left off: His6, C-terminal, state not stated
FRAP pore-forming activity, average (BAX [1]; mean of trials): 0.001715
FRAP pore-forming activity (BAX [1]; trial1): 0.003333
FRAP pore-forming activity (BAX [1]; trial2): 0.0005263
FRAP pore-forming activity (BAX [1]; trial3): 0.001579
FRAP pore-forming activity (BAX [1]; trial4): 0.002807
FRAP pore-forming activity (BAX [1]; trial5): 0.002982
FRAP pore-forming activity (BAX [1]; trial6): 0.001754
FRAP pore-forming activity (BAX [1]; trial7): 0.0005263
FRAP pore-forming activity (BAX [1]; trial8): 0.002807
FRAP pore-forming activity (BAX [1]; trial9): 0.0005263
FRAP pore-forming activity (BAX [1]; trial10): 0.0005263
FRAP pore-forming activity (BAX [1]; trial11): 0.0005263
FRAP pore-forming activity (BAX [1]; trial12): 0.001053
FRAP pore-forming activity (BAX [1]; trial13): 0.0005263
FRAP pore-forming activity (BAX [1]; trial14): 0.002632
FRAP pore-forming activity (BAX [1]; trial15): 0.001053
FRAP pore-forming activity (BAX [1]; trial16): 0.002632
FRAP pore-forming activity (BAX [1]; trial17): 0.001404
FRAP pore-forming activity (BAX [1]; trial18): 0.003684
pore-forming activity / effect on BAX-induced membrane pores on GUV (in words) (BAX [2]; 10- and 70-kDa F-dextran, BAX 1 µM, BimBH3 2 µM, BCL-2 1 µM, ABT-199 30 µM, room temperature, Fig. 2c): neither BAX nor EEE, in the absence of pro-apoptotic BimBH3, is able to induce large membrane pores on GUV; also recorded: the pore-forming ability of BAX is clearly inhibited by the presence of EEE
FRAP pore-forming activity, average (BAX [2]; 70 kDa F-dextran, mean of trials): 0.0009376
FRAP pore-forming activity (BAX [2]; 70 kDa F-dextran, trial1): 0.000495
FRAP pore-forming activity (BAX [2]; 70 kDa F-dextran, trial2): 0.0006601
FRAP pore-forming activity (BAX [2]; 70 kDa F-dextran, trial3): 0.000495
FRAP pore-forming activity (BAX [2]; 70 kDa F-dextran, trial4): 0.0009901
FRAP pore-forming activity (BAX [2]; 70 kDa F-dextran, trial5): 0.0008251
FRAP pore-forming activity (BAX [2]; 70 kDa F-dextran, trial6): 0.000495
FRAP pore-forming activity (BAX [2]; 70 kDa F-dextran, trial7): 0.0008251
FRAP pore-forming activity (BAX [2]; 70 kDa F-dextran, trial8): 0.000495
FRAP pore-forming activity (BAX [2]; 70 kDa F-dextran, trial9): 0.00132
FRAP pore-forming activity (BAX [2]; 70 kDa F-dextran, trial10): 0.0008251
FRAP pore-forming activity (BAX [2]; 70 kDa F-dextran, trial11): 0.0008251
FRAP pore-forming activity (BAX [2]; 70 kDa F-dextran, trial12): 0.0008251
FRAP pore-forming activity (BAX [2]; 70 kDa F-dextran, trial13): 0.001155
FRAP pore-forming activity (BAX [2]; 70 kDa F-dextran, trial14): 0.0009901
FRAP pore-forming activity (BAX [2]; 70 kDa F-dextran, trial15): 0.002475
FRAP pore-forming activity (BAX [2]; 70 kDa F-dextran, trial16): 0.000495
FRAP pore-forming activity (BAX [2]; 70 kDa F-dextran, trial17): 0.0006601
FRAP pore-forming activity (BAX [2]; 70 kDa F-dextran, trial18): 0.000495
FRAP pore-forming activity (BAX [2]; 70 kDa F-dextran, trial19): 0.002475
FRAP pore-forming activity (BAX [2]; 70 kDa F-dextran, trial20): 0.0008251
FRAP pore-forming activity (BAX [2]; 70 kDa F-dextran, trial21): 0.0006601
FRAP pore-forming activity (BAX [2]; 70 kDa F-dextran, trial22): 0.00132
